Source: publication PMC9528872 (Nature Communications, 2022)

How the values were obtained:
[1] = biological target: SARS-CoV-2 receptor binding domain (RBD), biotinylated (SARS-CoV-2, Wuhan-type, UniProt P0DTC2, biotin (BirA, on the Avi tag)); assay: BLI; details: both partners purified
[2] = biological target: T1, Tor2 SARS-CoV spike (Toronto, 2003) (SARS-CoV, strain Tor2); assay: ELISA; antibody at 2 ug/ml against Tor2 SARS-CoV spike
T1 construct: also called Tor2 spike protein

B1: Ab 2-7 scFv (scFv, V domains shown)
VH: QVTLKESGPTRVKPTQTLTLTCTFSGFSLSTTGVGVGWIRQPPGKALEWLALIYWNDDKRYSPSLKSRLTITKDTSKNQVVLTMTNMDPVDTATYYCARISGSGYFYPFDIWGQGTTVTVSS
VL: NFMLTQPHSVSESPGKTVTISCTRSSGSIASNYVQWYQQRPGSSPTTVIYEDNQRPSGVPDRFSGSIDSSSNSASLTISGLKAEDEADYYCQSYDSSSLWVFGGGTKLTVL
Kd [1]: 0.107 nM | koff [1]: 4.81e-05 s⁻¹ | kon [1]: 452000 M⁻¹ s⁻¹

B2: Ab 2-7 scFv-Fc (Fc fusion)
VH: QVTLKESGPTRVKPTQTLTLTCTFSGFSLSTTGVGVGWIRQPPGKALEWLALIYWNDDKRYSPSLKSRLTITKDTSKNQVVLTMTNMDPVDTATYYCARISGSGYFYPFDIWGQGTTVTVSS
VL: NFMLTQPHSVSESPGKTVTISCTRSSGSIASNYVQWYQQRPGSSPTTVIYEDNQRPSGVPDRFSGSIDSSSNSASLTISGLKAEDEADYYCQSYDSSSLWVFGGGTKLTVL
binding result [2]: binds
